± gives the standard deviation of the averaged measurements.
Tested on: Saccharomyces cerevisiae
Test: protein stability index of tFT-peptide fusion (C-terminal peptide) (PSI (0-1 scale)); higher = more stable (slower turnover)
Details: temperature: 30 C
Experimental: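 MPS profiling in S. cerevisiae of the yeast C-terminome library: the last 12 aa of each annotated ORF are fused to the C-terminus of a sfGFP-mCherry timer, after a GGGS linker. Cells are FACS-sorted into 8 mCherry/sfGFP bins and deep-sequenced. PSI runs from 0 (unstable) to 1 (stable); wild type and das1Δ backgrounds, two technical replicates each.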

[1] = genetic background: das1 deletion

| Sequence | protein stability index [1] | protein stability index (genetic background: wild type) |
| --- | --- | --- |
| TEFEKIHRNTFN [REX4 C-terminal 12 aa] | 0.706 ± 0.012 | 0.723 ± 0.033 |
| TEIDESFEMTDF [KEX1 C-terminal 12 aa] | 0.723 ± 0.021 | 0.7471 ± 0.0064 |
| TGFFGKLKKLFK [CRP1 C-terminal 12 aa] | 0.762 ± 0.0086 | 0.724 ± 0.0086 |
| TGFKDKFLDALL [PUT4 C-terminal 12 aa] | 0.689 ± 0.014 | 0.69 ± 0.011 |
| TGLAGEGDTLVT [TAG1 C-terminal 12 aa] | 0.694 ± 0.007 | 0.685 ± 0.021 |
| THLQQVAVSGQA [SEC23 C-terminal 12 aa] | 0.572 ± 0.0092 | 0.618 ± 0.014 |
| THMKPWYRRWFW [INA17 C-terminal 12 aa] | 0.742 ± 0.012 | 0.718 ± 0.018 |
| TIGWLQESLAGI [HOT1 C-terminal 12 aa] | 0.706 ± 0.0076 | 0.684 ± 0.029 |
| TIISKGYAKIRD [TAF4 C-terminal 12 aa] | 0.68 ± 0.022 | 0.7 ± 0.049 |
| TIKKGTTLEPIA [GCD11 C-terminal 12 aa] | 0.6896 ± 0.0033 | 0.7 ± 0.028 |
| TILHQQVNSKLH [YHR180W C-terminal 12 aa] | 0.7181 ± 0.00078 | 0.627 ± 0.02 |
| TILLFYPPLLKR [YDR544C C-terminal 12 aa] | 0.627 ± 0.0074 | 0.6119 ± 0.0047 |
| TIPAAKRTKPSA [LYS20 C-terminal 12 aa] | 0.69801 ± 0.00025 | 0.703 ± 0.014 |
| TKCSLKNSISLT [VAB2 C-terminal 12 aa] | 0.677 ± 0.012 | 0.733 ± 0.086 |
| TKEAKRRAMKKK [UME6 C-terminal 12 aa] | 0.706 ± 0.028 | 0.677 ± 0.013 |
| TKKANILDPDYL [FLC1 C-terminal 12 aa] | 0.685 ± 0.023 | 0.728 ± 0.032 |
| TKLGEQRHLCTD [ESL2 C-terminal 12 aa] | 0.698 ± 0.019 | 0.7 ± 0.013 |
| TKPNNGLNITNY [MTL1 C-terminal 12 aa] | 0.689 ± 0.019 | 0.716 ± 0.046 |
| TKSIFPSVNPSA [GPB2 C-terminal 12 aa] | 0.694 ± 0.02 | 0.669 ± 0.019 |
| TLDRASNCWRGT [YBL006W-A C-terminal 12 aa] | 0.709 ± 0.016 | 0.714 ± 0.062 |
| TLHDDRESKSED [CMK2 C-terminal 12 aa] | 0.6829 ± 0.0059 | 0.694 ± 0.036 |

| Sequence | protein stability index [1] | protein stability index (genetic background: wild type) |
| --- | --- | --- |
| TLIAAGIIRTGR [STI1 C-terminal 12 aa] | 0.727 ± 0.025 | 0.702 ± 0.016 |
| TLKSTSSTNSPD [SMP1 C-terminal 12 aa] | 0.703 ± 0.011 | 0.6844 ± 0.006 |
| TLVFDVELLKVN [FPR1 C-terminal 12 aa] | 0.6084 ± 0.0029 | 0.251 ± 0.033 |
| TMNCNNADDMLF [YGR190C C-terminal 12 aa] | 0.6995 ± 0.004 | 0.677 ± 0.022 |
| TNVGLKLIAIAK [PPM2 C-terminal 12 aa] | 0.655 ± 0.034 | 0.649 ± 0.017 |
| TNVQANSYRKVP [SDP1 C-terminal 12 aa] | 0.6856 ± 0.0029 | 0.522 ± 0.054 |
| TPGGGGFGQYKD [OXP1 C-terminal 12 aa] | 0.7088 ± 0.00061 | 0.677 ± 0.03 |
| TPLGPKPDIRPL [ECM4 C-terminal 12 aa] | 0.727 ± 0.03 | 0.67 ± 0.016 |
| TPSKEINFDDDF [RNR4 C-terminal 12 aa] | 0.72 ± 0.011 | 0.723 ± 0.041 |
| TQLRYTSRGLYR [ECM30 C-terminal 12 aa] | 0.699 ± 0.018 | 0.689 ± 0.023 |
| TQSGDDYTIRLT [APM1 C-terminal 12 aa] | 0.703 ± 0.015 | 0.698 ± 0.014 |
| TRPPCSPIAGYA [YOR345C C-terminal 12 aa] | 0.608 ± 0.017 | 0.628 ± 0.012 |
| TSCNLNSSVVRS [YOR186C-A C-terminal 12 aa] | 0.708 ± 0.035 | 0.695 ± 0.0014 |
| TSPKESFFKEVI [LPX2 C-terminal 12 aa] | 0.715 ± 0.03 | 0.711 ± 0.022 |
| TTPTLPTFRTVA [FKS3 C-terminal 12 aa] | 0.686 ± 0.018 | 0.6971 ± 0.0014 |
| TTTGDKKSEEKQ [TCB2 C-terminal 12 aa] | 0.685 ± 0.027 | 0.69 ± 0.032 |
| TYFSFHILFHNL [YOR309C C-terminal 12 aa] | 0.614 ± 0.0097 | 0.221 ± 0.013 |
| TYQLIEKNRNSK [BLS1 C-terminal 12 aa] | 0.692 ± 0.019 | 0.678 ± 0.01 |
| VAAGVFIEHDEL [YOS9 C-terminal 12 aa] | 0.723 ± 0.0098 | 0.702 ± 0.013 |
| VASSTEQLLQEM [DYN1 C-terminal 12 aa] | 0.67372 ± 0.00052 | 0.693 ± 0.029 |
| VATADIKNEDKN [BNA2 C-terminal 12 aa] | 0.671 ± 0.021 | 0.731 ± 0.066 |

| Sequence | protein stability index [1] | protein stability index (genetic background: wild type) |
| --- | --- | --- |
| VDAKIKKQMNRH [YJR124C C-terminal 12 aa] | 0.694 ± 0.011 | 0.682 ± 0.0093 |
| VDYKTEPLQPLI [RGI2 C-terminal 12 aa] | 0.7 ± 0.022 | 0.678 ± 0.0079 |
| VEGKNAAASGSA [LEU4 C-terminal 12 aa] | 0.7086 ± 0.0054 | 0.682 ± 0.013 |
| VEKDLVSVGSTW [NAR1 C-terminal 12 aa] | 0.676 ± 0.0024 | 0.7073 ± 0.0067 |
| VEKVKKFVEENN [YML108W C-terminal 12 aa] | 0.678 ± 0.007 | 0.651 ± 0.069 |
| VELYENQSHMQN [CDC9 C-terminal 12 aa] | 0.701 ± 0.01 | 0.678 ± 0.074 |
| VEVLENLQSVLK [ATP16 C-terminal 12 aa] | 0.68 ± 0.013 | 0.7134 ± 0.0029 |
| VGGIDYIKEFLS [CDA2 C-terminal 12 aa] | 0.7012 ± 0.0019 | 0.264 ± 0.0041 |
| VGLLTAIIMSIM [PST1 C-terminal 12 aa] | 0.576 ± 0.011 | 0.529 ± 0.021 |
| VGVERLLNDRFR [ARP4 C-terminal 12 aa] | 0.6944 ± 0.0026 | 0.695 ± 0.028 |
| VKKSNWSNYFKS [PCL2 C-terminal 12 aa] | 0.6868 ± 0.0023 | 0.682 ± 0.033 |
| VKKYSMKKKKKR [YDR320W-B C-terminal 12 aa] | 0.671 ± 0.014 | 0.62 ± 0.0065 |
| VKNWSKSILGFN [MSC1 C-terminal 12 aa] | 0.7095 ± 0.004 | 0.666 ± 0.021 |
| VLGDCQHVTSLL [HST4 C-terminal 12 aa] | 0.697 ± 0.015 | 0.7204 ± 0.0067 |
| VLREEVKKEEEN [KRS1 C-terminal 12 aa] | 0.6913 ± 0.006 | 0.7 ± 0.025 |
| VLVFSWRHIFCF [YJL120W C-terminal 12 aa] | 0.467 ± 0.026 | 0.179 ± 0.0033 |
| VNLDVTEDDKQK [STE20 C-terminal 12 aa] | 0.6857 ± 0.0021 | 0.67 ± 0.04 |
| VNPKAKRPSNEK [NOP2 C-terminal 12 aa] | 0.712 ± 0.044 | 0.754 ± 0.042 |
| VNRQLEMDLPIE [YKL066W C-terminal 12 aa] | 0.7074 ± 0.0056 | 0.712 ± 0.042 |
| VPLGPKPDISRL [GTO1 C-terminal 12 aa] | 0.7047 ± 0.0045 | 0.712 ± 0.041 |
| VPNDNNEQRSSQ [SAN1 C-terminal 12 aa] | 0.7041 ± 0.0064 | 0.662 ± 0.011 |

| Sequence | protein stability index [1] | protein stability index (genetic background: wild type) |
| --- | --- | --- |
| VPRFKDIFDDLS [DOA1 C-terminal 12 aa] | 0.7313 ± 0.0058 | 0.719 ± 0.0078 |
| VQCVCFNVEMRL [YIL046W-A C-terminal 12 aa] | 0.662 ± 0.015 | 0.676 ± 0.091 |
| VQHDPSVHTNQL [MAE1 C-terminal 12 aa] | 0.6923 ± 0.0028 | 0.664 ± 0.029 |
| VQNWKPKPFGVL [LAS1 C-terminal 12 aa] | 0.707 ± 0.015 | 0.737 ± 0.059 |
| VRDHFGVINSIW [YJL070C C-terminal 12 aa] | 0.715 ± 0.051 | 0.694 ± 0.011 |
| VRKDYIALINQY [ADI1 C-terminal 12 aa] | 0.6715 ± 0.0042 | 0.652 ± 0.01 |
| VRQVEEDENYDD [CYC8 C-terminal 12 aa] | 0.7 ± 0.024 | 0.748 ± 0.076 |
| VRYVIIHRHTST [RMD8 C-terminal 12 aa] | 0.648 ± 0.0073 | 0.599 ± 0.0066 |
| VSDSEQSDTKGI [UAF30 C-terminal 12 aa] | 0.6733 ± 0.0011 | 0.676 ± 0.016 |
| VSLKKGKLKAHC [YAP7 C-terminal 12 aa] | 0.673 ± 0.016 | 0.692 ± 0.019 |
| VTAGKAKFVLYN [SUN4 C-terminal 12 aa] | 0.665 ± 0.0087 | 0.445 ± 0.012 |
| VTVLRNSQYFFS [RPO41 C-terminal 12 aa] | 0.741 ± 0.039 | 0.728 ± 0.018 |
| VVQFLVNLVCHT [YGR114C C-terminal 12 aa] | 0.4879 ± 0.0042 | 0.487 ± 0.011 |
| VWCSVKKRLLEK [TIM23 C-terminal 12 aa] | 0.724 ± 0.016 | 0.732 ± 0.037 |
| WAKRAFDGQFVK [DAP2 C-terminal 12 aa] | 0.717 ± 0.0086 | 0.735 ± 0.017 |
| WEAYLRRCGQQN [URA3 C-terminal 12 aa] | 0.697 ± 0.032 | 0.658 ± 0.018 |
| WGIYEELVKRFM [HEM25 C-terminal 12 aa] | 0.7094 ± 0.0066 | 0.707 ± 0.013 |
| WKEDADKNAGHK [OCH1 C-terminal 12 aa] | 0.706 ± 0.012 | 0.731 ± 0.0062 |
| WKLRAKYGIRKD [MGR2 C-terminal 12 aa] | 0.6905 ± 0.0028 | 0.684 ± 0.02 |
